The supplement of paper PMC9170038

Tested on: MS2 coat protein
Test: apparent KD of MS2 coat protein; designed switch direction (-1 OFF switch, 1 ON switch): -1; higher = weaker reporter binding
Summary of the method: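 Apparent KD, taken as the median over clusters for each design, was obtained by curve-fitting normalised cluster fluorescence. Designed RNA switches had been transcribed on Illumina chips by stalled E. coli RNA polymerase and titrated with SNAP-549-labelled MS2 coat protein, doubling from 0.7 or 1.5 nM to 3 µM.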

[1] = input ligand: microRNA oligo, concentration not stated
[2] = Eterna round: R95, input ligand: microRNA oligo, concentration not stated
[3] = Eterna round: R95, input ligand: FMN 200 uM
[4] = Eterna round: R95, input ligand: none

Row | Sequence | apparent KD of MS2 coat protein (input ligand: FMN 200 uM) [nM] | apparent KD of MS2 coat protein [1] [nM] | apparent KD of MS2 coat protein (input ligand: none) [nM] | apparent KD of MS2 coat protein [2] [nM] | apparent KD of MS2 coat protein [3] [nM] | apparent KD of MS2 coat protein [4] [nM]
1 | UACAUGAGGAUCACCCAUGUUUUGUCGUGUAUGGUAUUUAUCUAGGAUAUCAAUUUGUGUAUUUAUGAGAAGGAGAAUAUUAAU [JMF's solution 68] (Eterna round: R96, puzzle: Exclusion NG 3) | 44 | 29.5 | 45.8 |  |  | 
2 | AUAAGGUCAGGAUAUGCUUGGCGGAUUCUGGUGUCCAAAUGACAUGAGGAUCACCCAUGUAGAAGGGACAUCAG [Leonlexe] (Eterna round: R97, puzzle: Exclusion 2) | 12.4 |  | 14.1 |  |  | 
3 | GUAACAACUAGAGGAUAUCAGCACGUUUAGUGCUGAGAAGGCUAGAGUUACAUGAGGAUCACCCAUGUCUAGAGAUCAUUAAUU [ENG1/13-A2] (Eterna round: R96, puzzle: Exclusion NG 1) | 177 | 66.3 | 83.8 |  |  | 
4 | CAUGUGUAAGGAUAUGACAAUGGUAUCUUCGGAUACCAUUGUCAGAAGGUACAUGAGGAUCACCCAUGUGGAUC [Ex4-3: 20] (puzzle: Exclusion 4) |  |  |  | 222 |  | 
5 | CCGCUGUGAGGAUAUUAGUAGUAGUCAGAAAAGACUAUUACUGAGAAGGCACAUGAGGAUCACCCAUGUCGCGG [Mat - Exclusion 4 - Eli Mod - D49] (Eterna round: R97, puzzle: Exclusion 4) | 39.7 |  | 28.8 |  |  | 
6 | UAGGUACAUGAGGAUCACCCAUGUGAGGAUAUAGAUGAAGAUUGCGAGAGGGAGAGGACUAGAAGGCACAGUGG [JR_Exclu1_Sub036] (puzzle: Exclusion 1) |  |  |  | 30.9 |  | 
7 | CGUACUGAAGUCAGGAUAUUGUCUCGGAUACGAAACAAGAAGGGACAUGAGGAUCACCCAUGUGGACAGUACGA [Malc #30 mod 6] (puzzle: Brourd's mod of Exclusion 4) |  |  |  | 44 | 38.3 | 36.7
8 | AAAAGAUGAGGAUAUAUAUGGAAUCCAAGGCAUGUGCUCUCACAUGAGGAUCACCCAUGUAGAAGGCAUCUGCC [Laxetera] (puzzle: Exclusion 2) |  |  |  | 9.79 |  | 
9 | ACUGGUCGAGGAUAUACAUGAGGAUCACCCAUGUUGAUCAACUGCCGAUAGGCAGAAUGUAGAAGGCGACCAGU [E3/7-A2] (Eterna round: R97, puzzle: Exclusion 3) | 119 |  | 942 |  |  | 
10 | CUCGUGUAAGGAUAUACGAGUCACGGAAAUAAAACGUGAAGGUAGAAGGUACAUGAGGAUCACCCAUGUAAAAC [Mod of Anonveat 2 - Jieux - Exclusion 4] (Eterna round: R97, puzzle: Exclusion 4) | 209 |  | 29.8 |  |  | 
11 | UAUUCUGGAGGAUAUACAUGAGGAUCACCCAUGUAAAUUGUACAGAGCGGGAGUCUAUGUAGAAGGCUAGGACA [EX3 C.2] (Eterna round: R97, puzzle: Exclusion 3) | 60.8 |  | 19.1 |  |  | 
12 | UGUAAGCUAGGAUAUGCUUUGGGAAAGCAUUCCUUCGAUAAACUUGAGGAUCACCCAAGUAGAAGGAGCUUACG [salish99_ex2_r4_007] (Eterna round: R97, puzzle: Exclusion 2) | 14.1 |  | 12.8 |  |  | 
13 | GCAGCAUAGUUUACUAACUGUUACAUGAGGAUCACCCAUGUUUAGGAUAUGGUCUGGAUUACAGGCCAGAAGGAAACAAGCUGC [Eli exng3 - 033] (Eterna round: R96, puzzle: Exclusion NG 3) | 12.8 | 9.51 | 12.4 |  |  | 
14 | AGUGUGUGGCAGGAUAUUCCGGUCGUUGGUCGGGAAGAAGGGUCUACAUGAGGAUCACCCAUGUGAGCGGUUGA [Ex6 #50] (Eterna round: R97, puzzle: Exclusion 6) | 489 |  | 379 |  |  | 
15 | UCGGCGCGAGGAUAUGCGGUUGCUUGGUAGGGUCGGAGCGUACAUGAGGAUCACCCAUGUAGAAGGCGCGCCGC [Apr-15 SS2-33] (puzzle: Exclusion 2) |  |  |  | 15.5 |  | 
16 | AGUACUAACACCGUUGUGUUAGUACAAUAAGCUUGUGAAACAUGAGGAUCACCCAUGUCCUCAUAAGCUCGUCUUAU [salish99_TOv2_r3_071] (puzzle: Sensor v3, turn-off variant 2) |  |  |  | 784 | 16.3 | 16.2
17 | UCUCGCGGGCAAGGAUAUCCCACGCUGUUCUGGCCCGUGUUUGUUACAUGAGGAUCACCCAUGUGGGAGAAGGUGCACCAGGGC [Design 42] (Eterna round: R96, puzzle: Exclusion NG 2) | 218 | 96.3 | 168 |  |  | 

Row | Sequence | apparent KD of MS2 coat protein (input ligand: FMN 200 uM) [nM] | apparent KD of MS2 coat protein [1] [nM] | apparent KD of MS2 coat protein (input ligand: none) [nM] | apparent KD of MS2 coat protein [2] [nM] | apparent KD of MS2 coat protein [3] [nM] | apparent KD of MS2 coat protein [4] [nM]
18 | CUCGUGCAGCUUUGCUGUACGAGUACAUGAGGAUCACCCAUGUAGGAUAUGGUACGCUUUGCGUGCCAGAAGGACGUGUGUUUG [JL EXNG3 1.40] (Eterna round: R96, puzzle: Exclusion NG 3) | 221 | 27.6 | 39.4 |  |  | 
19 | UAGUUACAUGAGGAUCACCCAUGUGAGGAUAUGAGUCAGUCACGGUGACGUGGCUGACUCAGAAGGCACAAAGG [Mat - Exclusion 1 - JL Mod - D38] (Eterna round: R97, puzzle: Exclusion 1) | 430 |  | 126 |  |  | 
20 | GUAUGUUAUGAGGAUAUCGGUGAACAUACACAUCGAGAAGGCAUGACAUGAGGAUCACCCAUGUCAAGGAUGUA [Exclusion 6 - B - 18:b] (puzzle: Exclusion 6) |  |  |  | 15.3 | 25.5 | 20.8
21 | AUUAUAAGGAGAGGAUAUCUAAUAAUAUAUAUUAGAGAAGGCUCACAUGAGGAUCACCCAUGUUUUUUUUUUUUUUUUUUUUUU [Default title] (Eterna round: R96, puzzle: Exclusion NG 1) | 89.5 | 65 | 71.7 |  |  | 
22 | UUUUAGAGAGGAUAUAUAAAGUGAAACAUGAGGAUCACCCAUGUAAUUUUAUGGAUGUAAAUAGAAGGCUCAUUUA [JL-ex5-3.01] (puzzle: Exclusion 5) |  |  |  | 34.3 |  | 
23 | CACCAGCGAGGAUAUACACGUGGUCUCCACUCCCGGUGGUAACAUGAGGAUCACCCAUGUAGAAGGCGCAACAU [Gecedi] (puzzle: Exclusion 2) |  |  |  | 44.8 |  | 
24 | AAUAUGUUAGGAUAUCUCAGCUGCCCGUAAACAGGCUAGCGAGAGAAGGGACAUGAGGAUCACCCAUGUCAUCC [Eternabot (Original) Solution 2] (Eterna round: R97, puzzle: Exclusion 4) | 17.1 |  | 15.6 |  |  | 
25 | GGUACUCAAAGAGUACCAAUACGAACAUGAGGAUCACCCAUGUAGGAUAUGCUACUCAAAGAGUAGCAGAAGGAUAUGAGCCUC [Far Half Aptamer v11] (Eterna round: R96, puzzle: Exclusion NG 3) | 663 | 319 | 334 |  |  | 
26 | UCUCGACAUGAGGAUCACCCAUGUCAGGAUAUUGUGUUUGAGGUUUUUUACCUUUUGGCAAGAAGGGAUGUGUG [LRO-Excl1-21] (Eterna round: R96, puzzle: Exclusion 1) | 27.5 | 19.7 | 27.7 |  |  | 
27 | GAAAAGGUAGGAUAUACGAAAAAAAAGGGUAGAAAAAAAACACAUGAGGAUCACCCAUGUAGAAGGACCAAAAA [salish99_ex2_r3_050] (puzzle: Exclusion 2) |  |  |  | 45 | 98.9 | 34.2
28 | CUAGUCCGAGGAUAUAUUAUGUGAAACAUGAGGAUCACCCAUGUUAUAUGAUGGAUGAAAAUAGAAGGCGGACUAG [Mat - Exclusion 5 - JL mod - D61] (puzzle: Exclusion 5) |  |  |  | 72.8 | 20.4 | 88.1
29 | CCCGCGCGUGUAGGAUAUGGCUCGGUGUCUGGGCCAGAAGGACAUGAGGAUCACCCAUGUCUGCGGGUGUGGGCGUGGUUUGGG [-36, -33 kcal A 14%] (Eterna round: R96, puzzle: Exclusion NG 1) | 91.8 | 18.6 | 27.2 |  |  | 
30 | GUGUGCUGAGGAUAUACAGAGGAAGAUAAGAUAAGAUAAUGACAUGAGGAUCACCCAUGUAGAAGGCAGAGUGU [Excluse me!! 15 - Jieux - Exclusion 2] (puzzle: Exclusion 2) |  |  |  | 30.5 |  | 
31 | CUCGUGCAGCAAAGCUGUACGAGUACAUGAGGAUCACCCAUGUAGGAUAUGGUACGCUUUGCGUGCUAGAAGGAUAUGUGUAGG [Mat - Exclusion NG 3 - Mod of JL - D86] (Eterna round: R96, puzzle: Exclusion NG 3) | 37.5 | 24.1 | 36.1 |  |  | 
32 | ACAUGACAGCUAGGAUAUAAAUGACAUGAGGAUCACCCAUGUUGUCCCAUGUUGAGGAUCACCCAUUAGAAGGAGCCACCCAUG [Exclusion NG2 S1] (Eterna round: R96, puzzle: Exclusion NG 2) | 92.8 | 49.2 | 85.3 |  |  | 
33 | GAGCUGUGAGGAUAUACAUGAGGAUCACCCAUGUAAUGGUAGUCGGGAUUAAUUUGGUGUAGAAGGCGCUUAUU [JR_Ex3_Sub020] (Eterna round: R97, puzzle: Exclusion 3) | 41 |  | 46 |  |  | 
34 | UAUCGGCGGACCGAGGCUUUUUGCUCGUCUUAUGCUACGACAUGAGGAUCACCCAUGUGGUGGUGGUCCGUUGUAGU [JL ViennaUCT Bitein mod 8] (puzzle: Sensor v3, turn-off variant 2) |  |  |  | 15.2 | 123 | 107
